In publication PMC6633205, “Cus2 enforces the first ATP-dependent step of splicing by binding to yeast SF3b1 through a UHM–ULM interaction” (RNA, 2019):
Substitutions are numbered along the chain they refer to. Numbers in names are those of the source. Values belong to the molecule of their own block, whether it stands above or below them.

What was measured:
[1] = target: SF3b1 ULM5 (Homo sapiens) (UniProt O75533); settings: cited from earlier work
[2] = target: T1, Cus2 UHM (residues 177-269) (S. cerevisiae, UniProt P53830 177-269); test: ITC; apparent; Cus2 or Tat-SF1 proteins titrated with Hsh155 ULM peptide (95-109); 50 mM NaCl, 25 mM HEPES pH 7.4, 0.2 mM TCEP; VP-ITC; three replicates; settings: both partners purified
T1 construct: Expressed as a GST fusion from a pGEX-6p variant with a TEV cleavage site for the GST tag; also called isolated Cus2 UHM
T1 sequence (looked up): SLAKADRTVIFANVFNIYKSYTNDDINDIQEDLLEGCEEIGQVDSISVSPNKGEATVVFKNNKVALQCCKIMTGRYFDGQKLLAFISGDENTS

Tat-SF1 (residues 1-360) [3] = target: T2, Tat-SF1 (residues 1-360) (human, UniProt O43719 1-360); test: as above; settings: both partners purified
T2 construct: lacks the divergent acidic C-terminal expansion; Expressed as a GST fusion from a pGEX-6p variant with a TEV cleavage site for the GST tag; also called recombinant Tat-SF1
T2 sequence (looked up): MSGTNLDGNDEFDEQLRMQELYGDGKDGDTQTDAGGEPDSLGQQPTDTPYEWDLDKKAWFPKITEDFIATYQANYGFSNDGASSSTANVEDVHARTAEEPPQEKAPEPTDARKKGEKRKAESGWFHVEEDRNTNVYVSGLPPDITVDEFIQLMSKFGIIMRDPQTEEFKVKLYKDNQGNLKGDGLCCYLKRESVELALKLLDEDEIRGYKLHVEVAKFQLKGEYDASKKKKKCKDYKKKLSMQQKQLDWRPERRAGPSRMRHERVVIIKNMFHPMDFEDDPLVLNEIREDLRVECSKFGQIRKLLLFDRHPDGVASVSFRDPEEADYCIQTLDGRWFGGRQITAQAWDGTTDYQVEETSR

[4] = target: T3, Cus2, full length, with C-terminal His-tag (S. cerevisiae, UniProt P53830 1-285); test: as above; settings: both partners purified
T3 construct: also called full-length Cus2; recombinant wild-type Cus2
T3 sequence (looked up): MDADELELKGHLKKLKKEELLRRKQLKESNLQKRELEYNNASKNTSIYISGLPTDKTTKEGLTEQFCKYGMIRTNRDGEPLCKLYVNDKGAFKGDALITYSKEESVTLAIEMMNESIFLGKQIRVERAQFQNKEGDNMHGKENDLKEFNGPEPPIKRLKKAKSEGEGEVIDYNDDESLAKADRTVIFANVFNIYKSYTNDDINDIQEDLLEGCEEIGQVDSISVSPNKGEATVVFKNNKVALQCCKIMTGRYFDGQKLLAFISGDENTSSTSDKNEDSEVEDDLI

[5] = target: T4, Cus2 D204K with C-terminal His-tag (S. cerevisiae, UniProt P53830 1-285, D204K); test: as above; settings: both partners purified
T4 construct: also called D204K mutant Cus2; recombinant Cus2^D204K; source: expressed and purified the same as wild-type Cus2, at the University of California Berkeley QB3 MacroLab
T4 sequence (looked up): T3 sequence (looked up) with D204K

[6] = target: T5, GB1-Cus2, full length, with N-terminal His-tag and GB1 solubility tag (S. cerevisiae, UniProt P53830 1-285); test: pull-down; GST-fusion protein or GST (100 µg) immobilised on glutathione agarose, GB1-Cus2 (500 µg in 500 µL) added for 30 min; 100 mM NaCl, 25 mM HEPES pH 7.4, 10% glycerol, 0.1% NP-40; six washes; SDS-PAGE, Coomassie; settings: both partners purified
T5 construct: also called full-length Cus2 protein; not shown: GB1, N-terminal, kept
T5 sequence (looked up): T3 sequence (looked up)

[7] = target: T6, Cus2, full length, fused to the GAL4 DNA-binding domain (S. cerevisiae, UniProt P53830 1-285); test: cell-based or functional assay
T6 sequence (looked up): T3 sequence (looked up)

Tat-SF1 (residues 1-360) [8] = target: T7, Tat-SF1 (residues 1-360) (human, UniProt O43719 1-360); test: ITC
T7 chain: T2 sequence (looked up)

- binding result [6]: binds
Molecule: ENTQDAVVPRKRKSRWDVKGYEPPDESSTAVKENSDSALVNVEG (domain or fragment, S. cerevisiae, UniProt P49955 86-129, looked up, also called ^GSTHsh155^ULM; Hsh155^ULM) [GST-Hsh155 (86-129)]

- pre-mRNA coimmunoprecipitated with Lea1-TAP in the absence of ATP (ATP-independent pre-spliceosome formation) in Hsh155^RW-DA extract relative to wild-type extract [7]: ~11 fold
B2: Hsh155 R100D, W101A fused to the GAL4 activation domain (natural protein, S. cerevisiae, UniProt P49955 1-971, looked up)
chain: MSHPIQFVNANNSDKSHQLGGQYSIPQDLRENLQKEAARIGENEKDVLQEKMETRTVQNREDSYHKRRFDMKFEPDSDTQTVTSSENTQDAVVPRKRKSDADVKGYEPPDESSTAVKENSDSALVNVEGIHDLMFFKPSDHKYFADVISKKPIDELNKDEKKERTLSMLLLKIKNGNTASRRTSMRILTDKAVTFGPEMIFNRLLPILLDRSLEDQERHLMIKTIDRVLYQLGDLTKPYVHKILVVAAPLLIDEDPMVRSTGQEIITNLSTVAGLKTILTVMRPDIENEDEYVRNVTSRAAAVVAKALGVNQLLPFINAACHSRKSWKARHTGIKIVQQIGILLGIGVLNHLTGLMSCIKDCLMDDHVPVRIVTAHTLSTLAENSYPYGIEVFNVVLEPLWKGIRSHRGKVLSSFLKAVGSMIPLMDPEYAGYYTTEAMRIIRREFDSPDDEMKKTILLVLQKCSAVESITPKFLREEIAPEFFQKFWVRRVALDRPLNKVVTYTTVTLAKKLGCSYTIDKLLTPLRDEAEPFRTMAVHAVTRTVNLLGTADLDERLETRLIDALLIAFQEQTNSDSIIFKGFGAVTVSLDIRMKPFLAPIVSTILNHLKHKTPLVRQHAADLCAILIPVIKNCHEFEMLNKLNIILYESLGEVYPEVLGSIINAMYCITSVMDLDKLQPPINQILPTLTPILRNKHRKVEVNTIKFVGLIGKLAPTYAPPKEWMRICFELLELLKSTNKEIRRSANATFGFIAEAIGPHDVLVALLNNLKVQERQLRVCTAVAIGIVAKVCGPYNVLPVIMNEYTTPETNVQNGVLKAMSFMFEYIGNMSKDYIYFITPLLEDALTDRDLVHRQTASNVITHLALNCSGTGHEDAFIHLMNLLIPNIFETSPHAIMRILEGLEALSQALGPGLFMNYIWAGLFHPAKNVRKAFWRVYNNMYVMYQDAMVPFYPVTPDNNEEYIEELDLVL

- Kd (Tat-SF1 (residues 1-360) [8]): 1800 nM
B3: SF3b1 ULM (protein)
chain: SQPPSKRKRRWDQTADQTPGATPKKLSSWDQAETPGHTPSLRWDETPGRAKGSETPGATPGSKIWDPTPSHTPAGAATPGRGDTPGHATPGHGGATSSARKNRWDETPKTERDTPGHGSGWAETPRTDRGGDSIGETPTPGASKRKSRWDETPAS

More lines, now with the values behind:

Molecule: Tat-SF1 (from UniProt O43719)
- Kd [1]: 800 nM

B1: Hsh155 ULM peptide (residues 95-109) (peptide, UniProt P49955 95-109, looked up)
peptide: RKRKSRWDVKGYEPP
notes: source: synthetic peptide, bought: Biomatik Corp. (98% purity)
- Kd [2]: 18 nM
- stoichiometry N [2]: ~1
- Kd (Tat-SF1 (residues 1-360) [3]): 229 nM
- stoichiometry N (Tat-SF1 (residues 1-360) [3]): ~1
- Kd [4]: 32 nM
- stoichiometry N [4]: ~1
- Kd [5]: 1020 nM
- stoichiometry N [5]: ~1

Molecule: KRKSRWDETPASQMGGSTP [ULM5]
- Kd (Tat-SF1 (residues 1-360) [8]): 800 nM
